This is an account of results in patent US20250228943A1.

In the experiment the target is TGFβR2-IL18R redirector receptor. The experiment can be described thus: cell-based or functional assay.
TGFβR2-IL18R redirector receptor, sequence (chain, as listed by the source): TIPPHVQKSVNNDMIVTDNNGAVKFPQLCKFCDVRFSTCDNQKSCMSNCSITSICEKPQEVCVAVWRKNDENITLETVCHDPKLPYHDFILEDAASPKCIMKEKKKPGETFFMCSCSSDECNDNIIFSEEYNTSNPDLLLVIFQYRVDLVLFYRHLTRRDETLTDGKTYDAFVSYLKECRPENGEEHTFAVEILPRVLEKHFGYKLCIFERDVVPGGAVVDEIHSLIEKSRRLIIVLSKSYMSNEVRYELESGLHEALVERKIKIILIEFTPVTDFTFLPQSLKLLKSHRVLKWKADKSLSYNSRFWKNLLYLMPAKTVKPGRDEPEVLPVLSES

Consider TGFβ (ligand), for which the percent CD69^+CD25^+ effector cells after five rounds of co-culture with TGFβ (flow cytometry) was determined as 61.6%.
